# In article PMC6278376, “Dynamics-Derived Insights into Complex Formation between the CXCL8 Monomer and CXCR1 N-Terminal Domain: An NMR Study” (Molecules, 2018):
# B1: CXCR1 N-domain peptide corresponding to the first 29 amino acids (29mer) (peptide, UniProt P25024 1-29, looked up)
# chain: MSNITDPQMWDFDDLNFTGMPPADEDYSP
# notes: CXCR1 receptor, N-terminal domain, first 29 amino acids (M1, S2 ... S28 named in the text); human by the discussion's contrast with the rabbit peptide; Recombinant peptide; 15N-labelled where it was the observed species in NMR, unlabelled otherwise; also called CXCR1 N-domain 29mer; CXCR1 N-terminal domain; source: E. coli BL21(DE3), purified
# How the values were obtained:
# [1] = target: T1, CXCL8 monomer (residues 1–66) (disulfides Cys9-Cys50 (printed) and Cys7-Cys34 (by convention), mature numbering; mature residue 1 = precursor 28 (offset +27), matching PDB 5WDZ entity 1 (66 aa); 15N-labelled for NMR); assay: ITC; 890 μM CXCR1 N-domain peptide injected into 80 μM CXCL8 monomer; 50 mM sodium phosphate pH 6.0, 25 °C; single-binding site model; conditions: both partners purified
# [2] = target: T1, CXCL8 monomer (residues 1–66); assay: NMR titration; 200 μM 15N-CXCL8 titrated with unlabeled CXCR1 peptide (2.5 mM stock, molar ratios 0 to 8.4); 2D 1H-15N HSQC; shift changes fit to a 1:1 model for KD; line shape analysis (Bloch–McConnell, two-site exchange) for koff, kon = koff/KD; 50 mM sodium phosphate pH 6.0, 30 °C; conditions: both partners purified
# T1 sequence (chain, as listed by the source): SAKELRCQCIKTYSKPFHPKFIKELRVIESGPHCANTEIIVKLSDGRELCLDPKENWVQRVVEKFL
binder,measurement,setting,value
B1,Kd,[1],8.4 ± 0.5 µM
same,dH,[1],-2.6 ± 0.2 kcal/mol
same,stoichiometry N,[1],0.93 ± 0.03
same,Kd,[2],~5 µM
